Where “and” joins values, the source holds several entries; their conditions need not be identical. Identical values can stand only once.
Details: Pseudomonas putida, 25 °C, GdnHCl, phosphate 50 mM, reversible: yes, whole UniProt chain shown

B1: 2-hydroxymuconate tautomerase wild type, Q01468 (protein)
chain: MPIAQIHILEGRSDEQKETLIREVSEAISRSLDAPLTSVRVIITEMAKGHFGIGGELASKVRR
denaturant midpoint (higher = more stable) (pH 6, CD): 1.9 M and 2.1 M and 2.3 M | denaturant midpoint (higher = more stable) (pH 6, activity): 1.4 M and 1.7 M | denaturant midpoint (higher = more stable) (pH 7.4, CD): 2.4 M and 2.7 M and 2.9 M | denaturant midpoint (higher = more stable) (pH 7.4, activity): 2.2 M and 2.5 M and 2.9 M | denaturant midpoint (higher = more stable) (pH 8.5, CD): 2.5 M and 2.8 M and 3 M | denaturant midpoint (higher = more stable) (pH 8.5, activity): 2.5 M and 2.7 M and 2.9 M
